The target of experiment [1] is T1, human NKG2D expressed on cells (primary human NK cells); EL4 mouse lymphoma cell lines engineered to express … (human, UniProt P26718 1-216).
T1 construct: whole, on cells; also called NKG2D expressed on EL4 cells; NKG2D on primary human NK cells
T1 sequence (looked up): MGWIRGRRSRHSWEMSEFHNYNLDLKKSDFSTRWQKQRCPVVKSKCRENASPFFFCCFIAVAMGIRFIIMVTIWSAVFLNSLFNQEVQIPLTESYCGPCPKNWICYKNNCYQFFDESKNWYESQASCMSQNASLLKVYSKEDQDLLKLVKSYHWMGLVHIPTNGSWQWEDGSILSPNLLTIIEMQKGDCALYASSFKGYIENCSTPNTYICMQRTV
The experiment can be described thus: flow cytometry on primary human NK cells. The procedure: Primary human NK cells and EL4 mouse lymphoma cell lines engineered to express human NKG2D were used to test binding affinity of trispecific binding proteins (TriNKETs) to NKG2D. Each of the TriNKETs tested contains an NKG2D-binding domain, a tumor-associated antigen binding domain (e.g., a 5T4-binding domain), and an Fc domain that binds to CD16 as shown in FIG. 1. TriNKETs were diluted to 20 μg/mL, and then diluted serially. The binding of the TriNKETs or the parental anti-5T4 monoclonal antibodies to NKG2D were detected using fluorophore-conjugated anti-human IgG secondary antibodies. Cells were analyzed by flow cytometry, and fold-over-background (FOB) was calculated by normalizing the mean fluorescence intensity (MFI) to human recombinant IgG1 staining control.
For orientation: In flow cytometry, cells or beads pass a laser one at a time.

The target of experiment [2] is T2, 5T4 expressed on human cancer cell lines (human, UniProt Q13641 32-420).
T2 construct: the assays used endogenous 5T4 on BxPC3, H146, H1975, HCT116, MCF7 and N87 cells; also called tumor-associated 5T4 antigen; human trophoblast glycoprotein 5T4
T2 sequence: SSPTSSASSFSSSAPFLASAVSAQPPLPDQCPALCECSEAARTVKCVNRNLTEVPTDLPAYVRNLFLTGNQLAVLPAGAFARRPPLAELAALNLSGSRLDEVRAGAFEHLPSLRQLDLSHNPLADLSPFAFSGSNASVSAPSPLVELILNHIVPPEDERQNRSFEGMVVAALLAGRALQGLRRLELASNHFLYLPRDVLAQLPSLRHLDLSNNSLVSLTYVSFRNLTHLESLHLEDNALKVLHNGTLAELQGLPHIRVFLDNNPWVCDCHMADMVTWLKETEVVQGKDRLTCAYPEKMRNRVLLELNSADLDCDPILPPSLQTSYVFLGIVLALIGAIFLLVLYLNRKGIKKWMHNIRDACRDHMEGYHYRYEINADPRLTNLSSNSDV
Put plainly: flow cytometry on 5T4-expressing human cancer cell lines. As for the experimental part:
(§1) Human cancer cell lines (BxPC3, H146, H1975, HCT116, MCF7 and N87) expressing the tumor-associated 5T4 antigen were used to assay the binding of 5T4-targeting TriNKETs to the antigen. In separate experiments, the TriNKETs or the parental anti-5T4 monoclonal antibodies were incubated with the each of the cell lines, and the binding of the TriNKETs or anti-5T4 monoclonal antibodies to the cells was detected using fluorophore-conjugated anti-human IgG secondary antibodies. Flow cytometry was used to analyze the binding of the TriNKETs or anti-5T4 monoclonal antibodies to the cells, and fold-over-background (FOB) was calculated by normalizing the mean fluorescence intensity (MFI) to human recombinant IgG1 staining control.

Experiment [3] addresses T2, 5T4 expressed on human cancer cell lines. Put plainly: flow cytometry on BxPC3 cells. The procedure:
as §1

The text below walks through data of patent US20200157226A1 (DRAGONFLY THERAPEUTICS, published 2020).

B1: anti-5T4 monoclonal antibody 5T4R (antibody, V domains shown)
VH: EVHLLESGGGLVHPGGSLRLSCAASGFTFRSDAMHWVRQAPGKGLEWVSGVSGSGGSPYYADSVKGRFTISRDDSKTTLYLQMNSLRAEDTAVYYCATGGSIAGSYYYYPMDVWGQGTTVTVSS
VL: DIQMTQSPSSLSASVGDRVTITCQASQDISNYLNWYQQKPGKAPKLLIYAASTLQIGVPSRFSGSGSGTDFTFTISSLQPEDFATYYCQQANSFPLTFGGGTKVEIK
notes: detected with anti-human IgG secondary antibody; also called parental anti-5T4R monoclonal antibody; 5T4 monoclonal antibody (mAb)
With B1, the results for the binding result in experiment [1] and in experiment [2] were “no binding” and “binds”, respectively.

B2: anti-5T4 monoclonal antibody 5T4A (antibody, V domains shown)
VH: EVQLVESGGGLVQPGGSLRLSCAASGFTFSNYWMNWVRQAPGKGLEWVGEIRLKSDKYATYYAESVKGRFTISRDDSKNSLYLQMNNLKTEDTGVYYCARRRGYYGSAYGMDYWGQGTLVTVSS
VL: DIQMTQSPSSLSASVGDRVTITCKASQDINSYLSWFQQKPGKAPKILIYRANRLVDGVPSRFSGSGSGKDFTFTISSLQPEDIATYYCLQYDFLPLTFGGGTKVEIK
notes: detected with anti-human IgG secondary antibody; also called 5T4 monoclonal antibody (mAb)
Take B2: the binding result is “binds” in experiment [3] and “no binding” in experiment [1].
